Experimental findings from US20220048967A1 (published 2022) are described below.

Numbered stars: 1 amine (or outer) side, 2 acyl side, 3 side chain; on linkers, the order of the positions; unused ones are H or OH. Square brackets hold non-standard residues; d marks the D form. Side chains are listed from the residue outwards. Ends that are not written are not given here. * marks the point of attachment. C20 diacid = O=C(O)CCCCCCCCCCCCCCCCCCC(=O)*; C18 diacid = O=C(O)CCCCCCCCCCCCCCCCC(=O)*; γGlu = O=C(O)[C@H](CCC(=O)[*:2])N[*:1]; AEEA = NCCOCCOCC(=O)O; Aib = CC(C)(N)C(=O)O Where only a bound is given, the exact number is not on record here.

Test [1] concerns the target T1, human gastric inhibitory peptide receptor (GIPR) (human, UniProt P48546 22-466).
T1 sequence (looked up): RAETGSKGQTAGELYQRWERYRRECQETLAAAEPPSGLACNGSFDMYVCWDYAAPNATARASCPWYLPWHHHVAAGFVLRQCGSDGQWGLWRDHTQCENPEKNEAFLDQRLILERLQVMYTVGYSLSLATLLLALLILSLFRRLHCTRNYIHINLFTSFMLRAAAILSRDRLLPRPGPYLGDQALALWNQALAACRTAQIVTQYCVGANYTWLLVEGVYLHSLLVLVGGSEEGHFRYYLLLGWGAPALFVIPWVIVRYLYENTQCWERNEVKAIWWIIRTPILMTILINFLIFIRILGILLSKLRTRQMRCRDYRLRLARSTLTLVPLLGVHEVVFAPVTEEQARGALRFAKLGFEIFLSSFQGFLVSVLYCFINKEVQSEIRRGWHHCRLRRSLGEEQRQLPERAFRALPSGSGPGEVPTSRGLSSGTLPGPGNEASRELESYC
Description: cell-based or functional assay.

The target of test [2] is human GLP-1 receptor (GLP-1R) (human, UniProt P43220 24-463). Description: cell-based or functional assay.

B1: Example 294 (peptide)
peptide: Y[Aib]EGTFTSDYSILLDKK([AEEA-AEEA-γGlu-C18 diacid])AQQAFIEYLIEGG-NH2
modifications: N-terminus assumed
SMILES: CC[C@H](C)[C@H](NC(=O)[C@H](CC(C)C)NC(=O)[C@H](Cc1ccc(O)cc1)NC(=O)[C@H](CCC(=O)O)NC(=O)[C@@H](NC(=O)[C@H](Cc1ccccc1)NC(=O)[C@H](C)NC(=O)[C@H](CCC(N)=O)NC(=O)[C@H](CCC(N)=O)NC(=O)[C@H](C)NC(=O)[C@H](CCCCNC(=O)COCCOCCNC(=O)COCCOCCNC(=O)CC[C@H](NC(=O)CCCCCCCCCCCCCCCCC(=O)O)C(=O)O)NC(=O)[C@H](CCCCN)NC(=O)[C@H](CC(=O)O)NC(=O)[C@H](CC(C)C)NC(=O)[C@H](CC(C)C)NC(=O)[C@@H](NC(=O)[C@H](CO)NC(=O)[C@H](Cc1ccc(O)cc1)NC(=O)[C@H](CC(=O)O)NC(=O)[C@H](CO)NC(=O)[C@@H](NC(=O)[C@H](Cc1ccccc1)NC(=O)[C@@H](NC(=O)CNC(=O)[C@H](CCC(=O)O)NC(=O)C(C)(C)NC(=O)[C@@H](N)Cc1ccc(O)cc1)[C@@H](C)O)[C@@H](C)O)[C@@H](C)CC)[C@@H](C)CC)C(=O)N[C@@H](CCC(=O)O)C(=O)NCC(=O)NCC(N)=O
As for B1, in test [1], the “hGIPR cAMP EC50 ratio” value turned out to be 0.75 and the “hGIPR cAMP Rel EC50” value is 0.183 nM. Further, in test [2], the “hGLP1R cAMP EC50 ratio” value was 0.249 and the “hGLP1R cAMP Rel EC50” value was found to be 0.185 nM.

B2: Example 295 (peptide)
peptide: Y[Aib]EGTFTSDYSILLDKK([AEEA-AEEA-γGlu-C18 diacid])AQHAFIEYLIEGG-NH2
modifications: N-terminus assumed
SMILES: CC[C@H](C)[C@H](NC(=O)[C@H](CC(C)C)NC(=O)[C@H](Cc1ccc(O)cc1)NC(=O)[C@H](CCC(=O)O)NC(=O)[C@@H](NC(=O)[C@H](Cc1ccccc1)NC(=O)[C@H](C)NC(=O)[C@H](Cc1c[nH]cn1)NC(=O)[C@H](CCC(N)=O)NC(=O)[C@H](C)NC(=O)[C@H](CCCCNC(=O)COCCOCCNC(=O)COCCOCCNC(=O)CC[C@H](NC(=O)CCCCCCCCCCCCCCCCC(=O)O)C(=O)O)NC(=O)[C@H](CCCCN)NC(=O)[C@H](CC(=O)O)NC(=O)[C@H](CC(C)C)NC(=O)[C@H](CC(C)C)NC(=O)[C@@H](NC(=O)[C@H](CO)NC(=O)[C@H](Cc1ccc(O)cc1)NC(=O)[C@H](CC(=O)O)NC(=O)[C@H](CO)NC(=O)[C@@H](NC(=O)[C@H](Cc1ccccc1)NC(=O)[C@@H](NC(=O)CNC(=O)[C@H](CCC(=O)O)NC(=O)C(C)(C)NC(=O)[C@@H](N)Cc1ccc(O)cc1)[C@@H](C)O)[C@@H](C)O)[C@@H](C)CC)[C@@H](C)CC)C(=O)N[C@@H](CCC(=O)O)C(=O)NCC(=O)NCC(N)=O
For B2, in test [1], the “hGIPR cAMP EC50 ratio” value was determined as 0.481 and the “hGIPR cAMP Rel EC50” value amounted to 0.281 nM. In addition, in test [2], the “hGLP1R cAMP EC50 ratio” value is 0.398 and the “hGLP1R cAMP Rel EC50” value came to 0.116 nM.

B3: Example 288 (peptide)
peptide: Y[Aib]EGTFTSDYSILLDKK([AEEA-AEEA-γGlu-C20 diacid])AQ[Aib]AFIEYLIAGGPSSGAPPPS-NH2
modifications: N-terminus assumed
SMILES: CC[C@H](C)[C@H](NC(=O)[C@H](CC(C)C)NC(=O)[C@H](Cc1ccc(O)cc1)NC(=O)[C@H](CCC(=O)O)NC(=O)[C@@H](NC(=O)[C@H](Cc1ccccc1)NC(=O)[C@H](C)NC(=O)C(C)(C)NC(=O)[C@H](CCC(N)=O)NC(=O)[C@H](C)NC(=O)[C@H](CCCCNC(=O)COCCOCCNC(=O)COCCOCCNC(=O)CC[C@H](NC(=O)CCCCCCCCCCCCCCCCCCC(=O)O)C(=O)O)NC(=O)[C@H](CCCCN)NC(=O)[C@H](CC(=O)O)NC(=O)[C@H](CC(C)C)NC(=O)[C@H](CC(C)C)NC(=O)[C@@H](NC(=O)[C@H](CO)NC(=O)[C@H](Cc1ccc(O)cc1)NC(=O)[C@H](CC(=O)O)NC(=O)[C@H](CO)NC(=O)[C@@H](NC(=O)[C@H](Cc1ccccc1)NC(=O)[C@@H](NC(=O)CNC(=O)[C@H](CCC(=O)O)NC(=O)C(C)(C)NC(=O)[C@@H](N)Cc1ccc(O)cc1)[C@@H](C)O)[C@@H](C)O)[C@@H](C)CC)[C@@H](C)CC)C(=O)N[C@@H](C)C(=O)NCC(=O)NCC(=O)N1CCC[C@H]1C(=O)N[C@@H](CO)C(=O)N[C@@H](CO)C(=O)NCC(=O)N[C@@H](C)C(=O)N1CCC[C@H]1C(=O)N1CCC[C@H]1C(=O)N1CCC[C@H]1C(=O)N[C@@H](CO)C(N)=O
For the molecule B3, in test [1], the “hGIPR cAMP EC50 ratio” value was 1.2 and the “hGIPR cAMP Rel EC50” value was 0.0732 nM. Also, in test [2], the “hGLP1R cAMP EC50 ratio” value was determined as 0.393 and the “hGLP1R cAMP Rel EC50” value came out at 0.172 nM.

B4: Example 275 (peptide)
peptide: Y[Aib]EGTFTSDYSILLDKK([AEEA-AEEA-γGlu-C18 diacid])AQPAFIEYLIEGG-NH2
modifications: N-terminus assumed
SMILES: CC[C@H](C)[C@H](NC(=O)[C@H](CC(C)C)NC(=O)[C@H](Cc1ccc(O)cc1)NC(=O)[C@H](CCC(=O)O)NC(=O)[C@@H](NC(=O)[C@H](Cc1ccccc1)NC(=O)[C@H](C)NC(=O)[C@@H]1CCCN1C(=O)[C@H](CCC(N)=O)NC(=O)[C@H](C)NC(=O)[C@H](CCCCNC(=O)COCCOCCNC(=O)COCCOCCNC(=O)CC[C@H](NC(=O)CCCCCCCCCCCCCCCCC(=O)O)C(=O)O)NC(=O)[C@H](CCCCN)NC(=O)[C@H](CC(=O)O)NC(=O)[C@H](CC(C)C)NC(=O)[C@H](CC(C)C)NC(=O)[C@@H](NC(=O)[C@H](CO)NC(=O)[C@H](Cc1ccc(O)cc1)NC(=O)[C@H](CC(=O)O)NC(=O)[C@H](CO)NC(=O)[C@@H](NC(=O)[C@H](Cc1ccccc1)NC(=O)[C@@H](NC(=O)CNC(=O)[C@H](CCC(=O)O)NC(=O)C(C)(C)NC(=O)[C@@H](N)Cc1ccc(O)cc1)[C@@H](C)O)[C@@H](C)O)[C@@H](C)CC)[C@@H](C)CC)C(=O)N[C@@H](CCC(=O)O)C(=O)NCC(=O)NCC(N)=O
Regarding B4, in test [1], the “hGIPR cAMP EC50 ratio” value was less than 0.00741 and the “hGIPR cAMP Rel EC50” value was more than 30 nM. In addition, in test [2], the “hGLP1R cAMP EC50 ratio” value amounted to 0.00357 and the “hGLP1R cAMP Rel EC50” value was 14 nM.

B5: Example 289 (peptide)
peptide: YXEGTFTSDYSIXLDKKAQXEFIEYLIAGGPSSGAPPPS
modifications: Aib2, αMeL13, (2-[2-(2-Amino-ethoxy)-ethoxy]-acetyl)2-(γ-Glu)-CO-(CH2)18-CO2H on K17, Aib20, C-terminal NH2
As for B5, in test [1], the “hGIPR cAMP EC50 ratio” value is 4.13 and the “hGIPR cAMP Rel EC50” value stood at 0.0228 nM. In test [2], the “hGLP1R cAMP EC50 ratio” value is 1.33 and the “hGLP1R cAMP Rel EC50” value was found to be 0.0544 nM.

B6: Example 290 (peptide)
peptide: XXEGTFTSDYSIXLDKKAQXEFIEYLIAGGPSSGAPPPS
modifications: D-Tyr1, Aib2, αMeL13, (2-[2-(2-Amino-ethoxy)-ethoxy]-acetyl)2-(γ-Glu)-CO-(CH2)18-CO2H on K17, Aib20, C-terminal NH2
Turning to B6, in test [1], the “hGIPR cAMP EC50 ratio” value was found to be 1.09 and the “hGIPR cAMP Rel EC50” value was found to be 0.0629 nM. In test [2], the “hGLP1R cAMP EC50 ratio” value worked out at 0.279 and the “hGLP1R cAMP Rel EC50” value is 0.179 nM.

B7: Example 292 (peptide)
peptide: XXEGTFTSDYSIXLDKKAQXEFIEXLIAGGPSSGAPPPS
modifications: D-Tyr1, Aib2, αMeL13, (2-[2-(2-Amino-ethoxy)-ethoxy]-acetyl)2-(γ-Glu)-CO-(CH2)18-CO2H on K17, Aib20, αMeY25, C-terminal NH2
For B7, in test [1], the “hGIPR cAMP EC50 ratio” value came to 1.1 and the “hGIPR cAMP Rel EC50” value was 0.0682 nM. For the same molecule, in test [2], the “hGLP1R cAMP EC50 ratio” value came to 0.143 and the “hGLP1R cAMP Rel EC50” value was 0.183 nM.

B8: Example 293 (peptide)
peptide: XXEGTFTSDYSIXLDXKAQXEFIEXLIAGGPSSGAPPPS
modifications: D-Tyr1, Aib2, αMeL13, Orn16, (2-[2-(2-Amino-ethoxy)-ethoxy]-acetyl)2-(γ-Glu)-CO-(CH2)18-CO2H on K17, Aib20, αMeY25, C-terminal NH2
For B8, in test [1], the “hGIPR cAMP EC50 ratio” value stood at 1.36 and the “hGIPR cAMP Rel EC50” value was 0.0562 nM. In test [2], the “hGLP1R cAMP EC50 ratio” value is 0.197 and the “hGLP1R cAMP Rel EC50” value was determined as 0.132 nM.

B9: Example 291 (peptide)
peptide: XXEGTFTSDYSIXLDXKAQXAFIXYLIAGGPSSGAPPPS
modifications: D-Tyr1, Aib2, αMeL13, Orn16, (2-[2-(2-Amino-ethoxy)-ethoxy]-acetyl)2-(γ-Glu)-CO-(CH2)18-CO2H on K17, Aib20, D-Glu24, C-terminal NH2
Regarding B9, in test [1], the “hGIPR cAMP EC50 ratio” value was found to be 0.746 and the “hGIPR cAMP Rel EC50” value was found to be 0.118 nM. In addition, in test [2], the “hGLP1R cAMP EC50 ratio” value was 0.188 and the “hGLP1R cAMP Rel EC50” value stood at 0.15 nM.

B10: Example 274 (peptide)
peptide: Y[Aib]EGTFTSDYSILLDKK([AEEA-AEEA-γGlu-C18 diacid])AQPAFIEYLIEGGPSSG-NH2
modifications: N-terminus assumed
SMILES: CC[C@H](C)[C@H](NC(=O)[C@H](CC(C)C)NC(=O)[C@H](Cc1ccc(O)cc1)NC(=O)[C@H](CCC(=O)O)NC(=O)[C@@H](NC(=O)[C@H](Cc1ccccc1)NC(=O)[C@H](C)NC(=O)[C@@H]1CCCN1C(=O)[C@H](CCC(N)=O)NC(=O)[C@H](C)NC(=O)[C@H](CCCCNC(=O)COCCOCCNC(=O)COCCOCCNC(=O)CC[C@H](NC(=O)CCCCCCCCCCCCCCCCC(=O)O)C(=O)O)NC(=O)[C@H](CCCCN)NC(=O)[C@H](CC(=O)O)NC(=O)[C@H](CC(C)C)NC(=O)[C@H](CC(C)C)NC(=O)[C@@H](NC(=O)[C@H](CO)NC(=O)[C@H](Cc1ccc(O)cc1)NC(=O)[C@H](CC(=O)O)NC(=O)[C@H](CO)NC(=O)[C@@H](NC(=O)[C@H](Cc1ccccc1)NC(=O)[C@@H](NC(=O)CNC(=O)[C@H](CCC(=O)O)NC(=O)C(C)(C)NC(=O)[C@@H](N)Cc1ccc(O)cc1)[C@@H](C)O)[C@@H](C)O)[C@@H](C)CC)[C@@H](C)CC)C(=O)N[C@@H](CCC(=O)O)C(=O)NCC(=O)NCC(=O)N1CCC[C@H]1C(=O)N[C@@H](CO)C(=O)N[C@@H](CO)C(=O)NCC(N)=O
Consider B10, for which, in test [1], the “hGIPR cAMP EC50 ratio” value was less than 0.00741 and the “hGIPR cAMP Rel EC50” value is more than 30 nM. In addition, in test [2], the “hGLP1R cAMP EC50 ratio” value is 0.00353 and the “hGLP1R cAMP Rel EC50” value is 14.5 nM.
